Publication PMC9352680, “A comprehensive thermodynamic model for RNA binding by the Saccharomyces cerevisiae Pumilio protein PUF4”

T1: PUF4 RNA-binding domain (Saccharomyces cerevisiae, UniProt P25339 537-888)
T1 sequence: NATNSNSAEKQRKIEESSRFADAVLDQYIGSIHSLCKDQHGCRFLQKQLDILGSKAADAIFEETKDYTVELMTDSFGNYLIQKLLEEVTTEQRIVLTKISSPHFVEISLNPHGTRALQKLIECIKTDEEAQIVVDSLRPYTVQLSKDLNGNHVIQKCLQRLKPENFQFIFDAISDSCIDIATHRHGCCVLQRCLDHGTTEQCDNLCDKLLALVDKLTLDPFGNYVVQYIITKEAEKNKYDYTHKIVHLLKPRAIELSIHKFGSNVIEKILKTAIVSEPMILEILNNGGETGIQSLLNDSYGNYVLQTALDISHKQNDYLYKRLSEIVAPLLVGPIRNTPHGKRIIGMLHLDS


target: T1, PUF4 RNA-binding domain; test: Mg; RNA-MaP; 20 mM Na-HEPES pH 7.4, 30 mM KOAc, 0.75 mM MgCl2, 0.1% Tween-20, 5% glycerol, 0.1 mg/mL BSA, 2 mM DTT; 25 C; 0.0125-409.6 nM protein; details: tags: N-His6-TEV cleaved; C-SNAP kept, Cy3B-labelled; label: tethered on chip by stalled RNA polymerase

Binder | Kd [µM]
UCUCUUACACACUAUUAACUCUCUU (ssRNA) [Id_ii_S1_P4E.4_K4.3_C4.2_[C-2A]_[T-1C]_H4.3_A4.1_F4.1_T4.2_[G10A]_[T11C]] | > 2.3
UCUCUUAAACACUAUUAUCUCUCUU (ssRNA) [Id_ii_S1_P4E.4_K4.3_C4.2_[C-2A]_[T-1A]_H4.3_A4.1_F4.1_T4.2_[G10T]_[T11C]] | > 2.3
UCUCUUAAACACUAUUACCUCUCUU (ssRNA) [Id_ii_S1_P4E.4_K4.3_C4.2_[C-2A]_[T-1A]_H4.3_A4.1_F4.1_T4.2_[G10C]_[T11C]] | > 2.3
UCUCUUCCACACUAUUACGUCUCUU (ssRNA) [Id_ii_S1_P4E.4_K4.3_C4.2_[T-1C]_H4.3_A4.1_F4.1_T4.2_[G10C]_[T11G]] | > 2.3
UCUCUUCCACACUAUUAAAUCUCUU (ssRNA) [Id_ii_S1_P4E.4_K4.3_C4.2_[T-1C]_H4.3_A4.1_F4.1_T4.2_[G10A]_[T11A]] | > 2.3
UCUCUUCGACACUAUUACCUCUCUU (ssRNA) [Id_ii_S1_P4E.4_K4.3_C4.2_[T-1G]_H4.3_A4.1_F4.1_T4.2_[G10C]_[T11C]] | > 2.3
UCUCUUAUACACUAUUACCUCUCUU (ssRNA) [Id_ii_S1_P4E.4_K4.3_C4.2_[C-2A]_H4.3_A4.1_F4.1_T4.2_[G10C]_[T11C]] | 0.0264
UCUCUUACACACUAUUACUUCUCUU (ssRNA) [Id_ii_S1_P4E.4_K4.3_C4.2_[C-2A]_[T-1C]_H4.3_A4.1_F4.1_T4.2_[G10C]] | > 2.3
UCUCUUACACACUAUUACCUCUCUU (ssRNA) [Id_ii_S1_P4E.4_K4.3_C4.2_[C-2A]_[T-1C]_H4.3_A4.1_F4.1_T4.2_[G10C]_[T11C]] | > 2.3
UCUCUUCCACACUAUUAUAUCUCUU (ssRNA) [Id_ii_S1_P4E.4_K4.3_C4.2_[T-1C]_H4.3_A4.1_F4.1_T4.2_[G10T]_[T11A]] | > 2.3
UCUCUUCCACACUAUUACUUCUCUU (ssRNA) [Id_ii_S1_P4E.4_K4.3_C4.2_[T-1C]_H4.3_A4.1_F4.1_T4.2_[G10C]] | > 2.3
UCUCUUAUACACUAUUAUAUCUCUU (ssRNA) [Id_ii_S1_P4E.4_K4.3_C4.2_[C-2A]_H4.3_A4.1_F4.1_T4.2_[G10T]_[T11A]] | 0.0311
UCUCUUAAACACUAUUAUAUCUCUU (ssRNA) [Id_ii_S1_P4E.4_K4.3_C4.2_[C-2A]_[T-1A]_H4.3_A4.1_F4.1_T4.2_[G10T]_[T11A]] | > 2.3
UCUCUUAUACACUAUUAAUUCUCUU (ssRNA) [Id_ii_S1_P4E.4_K4.3_C4.2_[C-2A]_H4.3_A4.1_F4.1_T4.2_[G10A]] | 0.0352
UCUCUUAGACACUAUUAAUUCUCUU (ssRNA) [Id_ii_S1_P4E.4_K4.3_C4.2_[C-2A]_[T-1G]_H4.3_A4.1_F4.1_T4.2_[G10A]] | > 2.3
UCUCUUCGACACUAUUACAUCUCUU (ssRNA) [Id_ii_S1_P4E.4_K4.3_C4.2_[T-1G]_H4.3_A4.1_F4.1_T4.2_[G10C]_[T11A]] | > 2.3
UCUCUUAUACACUAUUACGUCUCUU (ssRNA) [Id_ii_S1_P4E.4_K4.3_C4.2_[C-2A]_H4.3_A4.1_F4.1_T4.2_[G10C]_[T11G]] | 0.0321
UCUCUUAAACACUAUUAGCUCUCUU (ssRNA) [Id_ii_S1_P4E.4_K4.3_C4.2_[C-2A]_[T-1A]_H4.3_A4.1_F4.1_T4.2_[T11C]] | > 2.3
UCUCUUACACACUAUUACGUCUCUU (ssRNA) [Id_ii_S1_P4E.4_K4.3_C4.2_[C-2A]_[T-1C]_H4.3_A4.1_F4.1_T4.2_[G10C]_[T11G]] | > 2.3
UCUCUUUUACACUAUUAUCUCUCUU (ssRNA) [Id_ii_S1_P4E.4_K4.3_C4.2_[C-2T]_H4.3_A4.1_F4.1_T4.2_[G10T]_[T11C]] | 1.28
UCUCUUUUACACUAUUAUUUCUCUU (ssRNA) [Id_ii_S1_P4E.4_K4.3_C4.2_[C-2T]_H4.3_A4.1_F4.1_T4.2_[G10T]] | 1.13

Binder | Kd [µM]
UCUCUUAUACACUAUUACUUCUCUU (ssRNA) [Id_ii_S1_P4E.4_K4.3_C4.2_[C-2A]_H4.3_A4.1_F4.1_T4.2_[G10C]] | 0.0311
UCUCUUCCACACUAUUAGCUCUCUU (ssRNA) [Id_ii_S1_P4E.4_K4.3_C4.2_[T-1C]_H4.3_A4.1_F4.1_T4.2_[T11C]] | > 2.3
UCUCUUUGUAACUUAUCUCUU (ssRNA) [Ib_S1_P4E.1_K4.1_C4.1_H4.1_A4.1_[T5A]_[A6C]_F4.1_T4.1] | 0.00833
UCUCUUCCACACUAUUACCUCUCUU (ssRNA) [Id_ii_S1_P4E.4_K4.3_C4.2_[T-1C]_H4.3_A4.1_F4.1_T4.2_[G10C]_[T11C]] | > 2.3
UCUCUUAUACACUAUUAACUCUCUU (ssRNA) [Id_ii_S1_P4E.4_K4.3_C4.2_[C-2A]_H4.3_A4.1_F4.1_T4.2_[G10A]_[T11C]] | 0.0375
UCUCUUUGUACCUUAUCUCUU (ssRNA) [Ib_S1_P4E.1_K4.1_C4.1_H4.1_A4.1_[T5C]_[A6C]_F4.1_T4.1] | 0.00361
UCUCUUUGUACGUUAUCUCUU (ssRNA) [Ic_S1_P4E.1_K4.1_C4.1_H4.1_A4.1_[T5C]_[A6G]_F4.1_T4.1] | 0.00405
UCUCUUUUACACUAUUAUAUCUCUU (ssRNA) [Id_ii_S1_P4E.4_K4.3_C4.2_[C-2T]_H4.3_A4.1_F4.1_T4.2_[G10T]_[T11A]] | 0.944
UCUCUUCCACACUAUUAGAUCUCUU (ssRNA) [Id_ii_S1_P4E.4_K4.3_C4.2_[T-1C]_H4.3_A4.1_F4.1_T4.2_[T11A]] | > 2.3
UCUCUUCGACACUAUUAUCUCUCUU (ssRNA) [Id_ii_S1_P4E.4_K4.3_C4.2_[T-1G]_H4.3_A4.1_F4.1_T4.2_[G10T]_[T11C]] | > 2.3
UCUCUUCCACACUAUUACAUCUCUU (ssRNA) [Id_ii_S1_P4E.4_K4.3_C4.2_[T-1C]_H4.3_A4.1_F4.1_T4.2_[G10C]_[T11A]] | > 2.3
UCUCUUCGACACUAUUACUUCUCUU (ssRNA) [Id_ii_S1_P4E.4_K4.3_C4.2_[T-1G]_H4.3_A4.1_F4.1_T4.2_[G10C]] | > 2.3
UCUCUUCCACACUAUUAACUCUCUU (ssRNA) [Id_ii_S1_P4E.4_K4.3_C4.2_[T-1C]_H4.3_A4.1_F4.1_T4.2_[G10A]_[T11C]] | > 2.3
UCUCUUUUACACUAUUACUUCUCUU (ssRNA) [Id_ii_S1_P4E.4_K4.3_C4.2_[C-2T]_H4.3_A4.1_F4.1_T4.2_[G10C]] | 1.17
UCUCUUAAACACUAUUAUUUCUCUU (ssRNA) [Id_ii_S1_P4E.4_K4.3_C4.2_[C-2A]_[T-1A]_H4.3_A4.1_F4.1_T4.2_[G10T]] | > 2.3
UCUCUUCAACACUAUUACGUCUCUU (ssRNA) [Id_ii_S1_P4E.4_K4.3_C4.2_[T-1A]_H4.3_A4.1_F4.1_T4.2_[G10C]_[T11G]] | > 2.3
UCUCUUAAACACUAUUAAAUCUCUU (ssRNA) [Id_ii_S1_P4E.4_K4.3_C4.2_[C-2A]_[T-1A]_H4.3_A4.1_F4.1_T4.2_[G10A]_[T11A]] | > 2.3
UCUCUUUUACACUAUUAACUCUCUU (ssRNA) [Id_ii_S1_P4E.4_K4.3_C4.2_[C-2T]_H4.3_A4.1_F4.1_T4.2_[G10A]_[T11C]] | 0.977
UCUCUUUAACACUAUUAUUUCUCUU (ssRNA) [Id_ii_S1_P4E.4_K4.3_C4.2_[C-2T]_[T-1A]_H4.3_A4.1_F4.1_T4.2_[G10T]] | > 2.3
UCUCUUAUACACUAUUAGCUCUCUU (ssRNA) [Id_ii_S1_P4E.4_K4.3_C4.2_[C-2A]_H4.3_A4.1_F4.1_T4.2_[T11C]] | 0.0495
UCUCUUCAACACUAUUAUAUCUCUU (ssRNA) [Id_ii_S1_P4E.4_K4.3_C4.2_[T-1A]_H4.3_A4.1_F4.1_T4.2_[G10T]_[T11A]] | > 2.3

Binder | Kd [µM]
UCUCUUUAACACUAUUAGUUCUCUU (ssRNA) [Id_ii_S1_P4E.4_K4.3_C4.2_[C-2T]_[T-1A]_H4.3_A4.1_F4.1_T4.2] | > 2.3
UCUCUUAUACACUAUUAUUUCUCUU (ssRNA) [Id_ii_S1_P4E.4_K4.3_C4.2_[C-2A]_H4.3_A4.1_F4.1_T4.2_[G10T]] | 0.0352
UCUCUUUGUACUUUAUCUCUU (ssRNA) [Ib_S1_P4E.1_K4.1_C4.1_H4.1_A4.1_[T5C]_[A6T]_F4.1_T4.1] | 0.00273
UCUCUUAUACACUAUUAAAUCUCUU (ssRNA) [Id_ii_S1_P4E.4_K4.3_C4.2_[C-2A]_H4.3_A4.1_F4.1_T4.2_[G10A]_[T11A]] | 0.0243
UCUCUUUUACACUAUUACGUCUCUU (ssRNA) [Id_ii_S1_P4E.4_K4.3_C4.2_[C-2T]_H4.3_A4.1_F4.1_T4.2_[G10C]_[T11G]] | 1.68
UCUCUUUUACACUAUUAAUUCUCUU (ssRNA) [Id_ii_S1_P4E.4_K4.3_C4.2_[C-2T]_H4.3_A4.1_F4.1_T4.2_[G10A]] | 1.12
UCUCUUUGUAGUUUAUCUCUU (ssRNA) [Ic_S1_P4E.1_K4.1_C4.1_H4.1_A4.1_[T5G]_[A6T]_F4.1_T4.1] | 0.0185
UCUCUUCCACACUAUUAGUUCUCUU (ssRNA) [Id_ii_S1_P4E.4_K4.3_C4.2_[T-1C]_H4.3_A4.1_F4.1_T4.2] | > 2.3
UCUCUUCAACACUAUUACUUCUCUU (ssRNA) [Id_ii_S1_P4E.4_K4.3_C4.2_[T-1A]_H4.3_A4.1_F4.1_T4.2_[G10C]] | > 2.3
UCUCUUAUACACUAUUAGUUCUCUU (ssRNA) [Id_ii_S1_P4E.4_K4.3_C4.2_[C-2A]_H4.3_A4.1_F4.1_T4.2] | 0.0428
UCUCUUUUACACUAUUACCUCUCUU (ssRNA) [Id_ii_S1_P4E.4_K4.3_C4.2_[C-2T]_H4.3_A4.1_F4.1_T4.2_[G10C]_[T11C]] | 1.32
UCUCUUAGACACUAUUACAUCUCUU (ssRNA) [Id_ii_S1_P4E.4_K4.3_C4.2_[C-2A]_[T-1G]_H4.3_A4.1_F4.1_T4.2_[G10C]_[T11A]] | > 2.3
UCUCUUACACACUAUUAGCUCUCUU (ssRNA) [Id_ii_S1_P4E.4_K4.3_C4.2_[C-2A]_[T-1C]_H4.3_A4.1_F4.1_T4.2_[T11C]] | > 2.3
UCUCUUAGACACUAUUAACUCUCUU (ssRNA) [Id_ii_S1_P4E.4_K4.3_C4.2_[C-2A]_[T-1G]_H4.3_A4.1_F4.1_T4.2_[G10A]_[T11C]] | > 2.3
UCUCUUCGACACUAUUAACUCUCUU (ssRNA) [Id_ii_S1_P4E.4_K4.3_C4.2_[T-1G]_H4.3_A4.1_F4.1_T4.2_[G10A]_[T11C]] | > 2.3
UCUCUUAUACACUAUUACAUCUCUU (ssRNA) [Id_ii_S1_P4E.4_K4.3_C4.2_[C-2A]_H4.3_A4.1_F4.1_T4.2_[G10C]_[T11A]] | 0.0296
UCUCUUUAACACUAUUAGCUCUCUU (ssRNA) [Id_ii_S1_P4E.4_K4.3_C4.2_[C-2T]_[T-1A]_H4.3_A4.1_F4.1_T4.2_[T11C]] | > 2.3
UCUCUUUUACACUAUUAGUUCUCUU (ssRNA) [Id_ii_S1_P4E.4_K4.3_C4.2_[C-2T]_H4.3_A4.1_F4.1_T4.2] | 1.37
UCUCUUUUACACUAUUAGCUCUCUU (ssRNA) [Id_ii_S1_P4E.4_K4.3_C4.2_[C-2T]_H4.3_A4.1_F4.1_T4.2_[T11C]] | 1.59
UCUCUUAUACACUAUUAUCUCUCUU (ssRNA) [Id_ii_S1_P4E.4_K4.3_C4.2_[C-2A]_H4.3_A4.1_F4.1_T4.2_[G10T]_[T11C]] | 0.0218
